The source of these data is patent US9958461B2, “Detection of protein to protein interactions” (THE GOVERNING COUNCIL OF THE UNIVERSITY OF TORONTO, priority 2013, dated 2018).

In assay [1] the test system is EGFR-Wt. Nature of the assay: MaMTH EGFR-interactor screen, lentiviral preys against EGFR-wildtype bait (interaction score). Type of assay: cell-based, human. The following applies: ratio of EGFR-Wt mean to EGFR-L858R mean interaction score. Here is the method:
(§1) After lentivirus harvest, target cells (stable 5×GAL4UAS-luciferase reporter-HEK293T cells) were infected at a multiplicity of infection (MOI) of around 0.3-0.4 to ensure single copy integration per cell. Cells were selected in puromycin for at least 48 h and transfected with either EGFR-wildtype or EGFR-L858R baits in triplicates. 24 h after transfection, cells were lysed and luciferase assays performed. On each set of interaction assays, various negative controls were included. To calculate a MaMTH-interaction scores, negative controls were averaged and the fold-change of luciferase activity compared to the averaged controls was calculated and defined as the interaction score.
(§2) Each set of experiments contains a defined set of negative controls in at least three replicates. Negative controls were chosen as such that there is a range of controls showing high-background luciferase activity (normally cytosolic proteins: Fabp5, Pex19) as well as medium-background luciferase activity (membrane-bound interactors: Pex7, GABBR2). Negative controls were averaged and the fold-change of luciferase activity was calculated. Using this method, we have a stringent cut-off and chose an interaction score >1 to be interacting proteins.
(§3) Our cut-off of 1 is based on fold-change difference in luciferase activity over averaged negative controls. Negative controls include cytosolic preys (which tend to promiscuously bind to many proteins), plasma membrane- and peroxisomal-prey proteins. In general, we chose stringent conditions by testing preys that tend to have high luciferase background with any bait tested, in order to generate high-confidence interaction data. […] Phosphorylated tyrosine residues on the receptor are typically docking sites for downstream cytoplasmic targets and recognized through SH2 or PTB domains^43.

Assay [2] concerns the target T1, EGFR-Wt (Homo sapiens, UniProt P00533).
T1 construct: with the advantage of testing full-length integral membrane proteins; (GGGGS)2 linker-Cub (human ubiquitin aa 35-76)-GAL4(1-147)-mNFkB(364-550) (C); expressed in transfected cells
The assay is described as above. Type of assay: cell-based. As to conditions: MaMTH interaction score of prey with EGFR-Wt bait, mean. The protocol: as §1, §2, §3

Assay [3] concerns the target T2, EGFR-L858R (Homo sapiens, UniProt P00533, L858R).
T2 construct: with the advantage of testing full-length integral membrane proteins; (GGGGS)2 linker-Cub (human ubiquitin aa 35-76)-GAL4(1-147)-mNFkB(364-550) (C); expressed in transfected cells
The assay can be described thus: MaMTH EGFR-interactor screen, lentiviral preys against EGFR-L858R bait (interaction score). The following applies: MaMTH interaction score of prey with EGFR-L858R bait. The class given is cell-based. The protocol: as §1, §2, §3

B1: SH3GL3 (protein, UniProt Q99963 1-347, looked up)
Endophilin-A3: MSVAGLKKQFHKASQLFSEKISGAEGTKLDDEFLDMERKIDVTNKVVAEILSKTTEYLQPNPAYRAKLGMLNTVSKIRGQVKTTGYPQTEGLLGDCMLKYGKELGEDSTFGNALIEVGESMKLMAEVKDSLDINVKQTFIDPLQLLQDKDLKEIGHHLKKLEGRRLDYDYKKKRVGKIPDEEVRQAVEKFEESKELAERSMFNFLENDVEQVSQLAVFIEAALDYHRQSTEILQELQSKLQMRISAASSVPRREYKPRPVKRSSSELNGVSTTSVVKTTGSNIPMDQPCCRGLYDFEPENQGELGFKEGDIITLTNQIDENWYEGMIHGESGFFPINYVEVIVPLPQ
Take B1: in assay [1], the Wt/L858R worked out at 1.05. Further, the EGFR-Wt mean in assay [2] came out at 3.41. The EGFR-L858R mean in assay [3] stood at 3.26.

B2: RAPGEF1 (protein, UniProt Q13905 1-1077, looked up)
Rap guanine nucleotide …: MDTDSQRSHLSSFTMKLMDKFHSPKIKRTPSKKGKPAEVSVKIPEKPVNKEATDRFLPEGYPLPLDLEQQAVEFMSTSAVASRSQRQKNLSWLEEKEKEVVSALRYFKTIVDKMAIDKKVLEMLPGSASKVLEAILPLVQNDPRIQHSSALSSCYSRVYQSLANLIRWSDQVMLEGVNSEDKEMVTTVKGVIKAVLDGVKELVRLTIEKQGRPSPTSPVKPSSPASKPDGPAELPLTDREVEILNKTTGMSQSTELLPDATDEEVAPPKPPLPGIRVVDNSPPPALPPKKRQSAPSPTRVAVVAPMSRATSGSSLPVGINRQDFDVDCYAQRRLSGGSHSYGGESPRLSPCSSIGKLSKSDEQLSSLDRDSGQCSRNTSCETLDHYDPDYEFLQQDLSNADQIPQQTAWNLSPLPESLGESGSPFLGPPFQLPLGGHPQPDGPLAPGQQTDTPPALPEKKRRSAASQTADGSGCRVSYERHPSQYDNISGEDLQSTAPIPSVPYAPFAAILPFQHGGSSAPVEFVGDFTAPESTGDPEKPPPLPEKKNKHMLAYMQLLEDYSEPQPSMFYQTPQNEHIYQQKNKLLMEVYGFSDSFSGVDSVQELAPPPALPPKQRQLEPPAGKDGHPRDPSAVSGVPGKDSRDGSERAPKSPDALESAQSEEEVDELSLIDHNEIMSRLTLKQEGDDGPDVRGGSGDILLVHATETDRKDLVLYCEAFLTTYRTFISPEELIKKLQYRYEKFSPFADTFKKRVSKNTFFVLVRVVDELCLVELTEEILKLLMELVFRLVCNGELSLARVLRKNILDKVDQKKLLRCATSSQPLAARGVAARPGTLHDFHSHEIAEQLTLLDAELFYKIEIPEVLLWAKEQNEEKSPNLTQFTEHFNNMSYWVRSIIMLQEKAQDRERLLLKFIKIMKHLRKLNNFNSYLAILSALDSAPIRRLEWQKQTSEGLAEYCTLIDSSSSFRAYRAALSEVEPPCIPYLGLILQDLTFVHLGNPDYIDGKVNFSKRWQQFNILDSMRCFQQAHYDMRRNDDIINFFNDFSDHLAEEALWELSLKIKPRNITRRKTDREEKT
As to B2, in assay [1], the Wt/L858R was determined as 1.10. For the same molecule, in assay [2], the EGFR-Wt mean was 3.48. The same molecule returned an EGFR-L858R mean in assay [3] of 3.15.

B3: GRAP2 (protein, UniProt O75791 1-330, looked up)
GRB2-related adapter protein 2: MEAVAKFDFTASGEDELSFHTGDVLKILSNQEEWFKAELGSQEGYVPKNFIDIQFPKWFHEGLSRHQAENLLMGKEVGFFIIRASQSSPGDFSISVRHEDDVQHFKVMRDNKGNYFLWTEKFPSLNKLVDYYRTNSISRQKQIFLRDRTREDQGHRGNSLDRRSQGGPHLSGAVGEEIRPSMNRKLSDHPPTLPLQQHQHQPQPPQYAPAPQQLQQPPQQRYLQHHHFHQERRGGSLDINDGHCGTGLGSEMNAALMHRRHTDPVQLQAAGRVRWARALYDFEALEDDELGFHSGEVVEVLDSSNPSWWTGRLHNKLGLFPANYVAPMTR
For B3, the Wt/L858R in assay [1] was 0.22. In assay [2], this molecule had an EGFR-Wt mean of 1.79. For the same molecule, the EGFR-L858R mean in assay [3] worked out at 8.12.

B4: TNK2 (protein, UniProt Q07912 1-1038, looked up)
Activated CDC42 kinase 1: MQPEEGTGWLLELLSEVQLQQYFLRLRDDLNVTRLSHFEYVKNEDLEKIGMGRPGQRRLWEAVKRRKALCKRKSWMSKVFSGKRLEAEFPPHHSQSTFRKTSPAPGGPAGEGPLQSLTCLIGEKDLRLLEKLGDGSFGVVRRGEWDAPSGKTVSVAVKCLKPDVLSQPEAMDDFIREVNAMHSLDHRNLIRLYGVVLTPPMKMVTELAPLGSLLDRLRKHQGHFLLGTLSRYAVQVAEGMGYLESKRFIHRDLAARNLLLATRDLVKIGDFGLMRALPQNDDHYVMQEHRKVPFAWCAPESLKTRTFSHASDTWMFGVTLWEMFTYGQEPWIGLNGSQILHKIDKEGERLPRPEDCPQDIYNVMVQCWAHKPEDRPTFVALRDFLLEAQPTDMRALQDFEEPDKLHIQMNDVITVIEGRAENYWWRGQNTRTLCVGPFPRNVVTSVAGLSAQDISQPLQNSFIHTGHGDSDPRHCWGFPDRIDELYLGNPMDPPDLLSVELSTSRPPQHLGGVKKPTYDPVSEDQDPLSSDFKRLGLRKPGLPRGLWLAKPSARVPGTKASRGSGAEVTLIDFGEEPVVPALRPCAPSLAQLAMDACSLLDETPPQSPTRALPRPLHPTPVVDWDARPLPPPPAYDDVAQDEDDFEICSINSTLVGAGVPAGPSQGQTNYAFVPEQARPPPPLEDNLFLPPQGGGKPPSSAQTAEIFQALQQECMRQLQAPAGSPAPSPSPGGDDKPQVPPRVPIPPRPTRPHVQLSPAPPGEEETSQWPGPASPPRVPPREPLSPQGSRTPSPLVPPGSSPLPPRLSSSPGKTMPTTQSFASDPKYATPQVIQAPGPRAGPCILPIVRDGKKVSSTHYYLLPERPSYLERYQRFLREAQSPEEPTPLPVPLLLPPPSTPAPAAPTATVRPMPQAALDPKANFSTNNSNPGARPPPPRATARLPQRGCPGDGPEAGRPADKIQMAMVHGVTTEECQAALQCHGWSVQRAAQYLKVEQLFGLGLRPRGECHKVLEMFDWNLEQAGCHLLGSWGPAHHKR
For B4, in assay [1], the Wt/L858R was determined as 1.16. Also, the EGFR-Wt mean in assay [2] came to 1.51. The molecule further came in with an EGFR-L858R mean in assay [3] of 1.30.

B5: APBB2 (protein, UniProt Q92870 1-758, looked up)
Amyloid beta precursor …: MSEVLPADSGVDTLAVFMASSGTTDVTNRNSPATPPNTLNLRSSHNELLNAEIKHTETKNSTPPKCRKKYALTNIQAAMGLSDPAAQPLLGNGSANIKLVKNGENQLRKAAEQGQQDPNKNLSPTAVINITSEKLEGKEPHPQDSSSCEILPSQPRRTKSFLNYYADLETSARELEQNRGNHHGTAEEKSQPVQGQASTIIGNGDLLLQKPNRPQSSPEDGQVATVSSSPETKKDHPKTGAKTDCALHRIQNLAPSDEESSWTTLSQDSASPSSPDETDIWSDHSFQTDPDLPPGWKRVSDIAGTYYWHIPTGTTQWERPVSIPADLQGSRKGSLSSVTPSPTPENEKQPWSDFAVLNGGKINSDIWKDLHAATVNPDPSLKEFEGATLRYASLKLRNAPHPDDDDSCSINSDPEAKCFAVRSLGWVEMAEEDLAPGKSSVAVNNCIRQLSYCKNDIRDTVGIWGEGKDMYLILENDMLSLVDPMDRSVLHSQPIVSIRVWGVGRDNGRDFAYVARDKDTRILKCHVFRCDTPAKAIATSLHEICSKIMAERKNAKALACSSLQERANVNLDVPLQVDFPTPKTELVQKFHVQYLGMLPVDKPVGMDILNSAIENLMTSSNKEDWLSVNMNVADATVTVISEKNEEEVLVECRVRFLSFMGVGKDVHTFAFIMDTGNQRFECHVFWCEPNAGNVSEAVQAACMLRYQKCLVARPPSQKVRPPPPPADSVTRRVTTNVKRGVLSLIDTLKQKRPVTEMP
B5: in assay [1], the Wt/L858R amounted to 1.05. Besides, the EGFR-Wt mean in assay [2] is 3.05. Moreover, the EGFR-L858R mean in assay [3] worked out at 2.92.

B6: RIN1 (protein, UniProt Q13671 1-783, looked up)
Ras and Rab interactor 1: MESPGESGAGSPGAPSPSSFTTGHLAREKPAQDPLYDVPNASGGQAGGPQRPGRVVSLRERLLLTRPVWLQLQANAAAALHMLRTEPPGTFLVRKSNTRQCQALCMRLPEASGPSFVSSHYILESPGGVSLEGSELMFPDLVQLICAYCHTRDILLLPLQLPRAIHHAATHKELEAISHLGIEFWSSSLNIKAQRGPAGGPVLPQLKARSPQELDQGTGAALCFFNPLFPGDLGPTKREKFKRSFKVRVSTETSSPLSPPAVPPPPVPVLPGAVPSQTERLPPCQLLRRESSVGYRVPAGSGPSLPPMPSLQEVDCGSPSSSEEEGVPGSRGSPATSPHLGRRRPLLRSMSAAFCSLLAPERQVGRAAAALMQDRHTAAGQLVQDLLTQVRAGPEPQELQGIRQALSRARAMLSAELGPEKLLSPKRLEHVLEKSLHCSVLKPLRPILAARLRRRLAADGSLGRLAEGLRLARAQGPGAFGSHLSLPSPVELEQVRQKLLQLLRTYSPSAQVKRLLQACKLLYMALRTQEGEGAGADEFLPLLSLVLAHCDLPELLLEAEYMSELLEPSLLTGEGGYYLTSLSASLALLSGLGQAHTLPLSPVQELRRSLSLWEQRRLPATHCFQHLLRVAYQDPSSGCTSKTLAVPPEASIATLNQLCATKFRVTQPNTFGLFLYKEQGYHRLPPGALAHRLPTTGYLVYRRAEWPETQGAVTEEEGSGQSEARSRGEEQGCQGDGDAGVKASPRDIREQSETTAEGGQGQAQEGPAQPGEPEAEGSRAAEE
Turning to B6, the Wt/L858R in assay [1] is 1.19. The EGFR-Wt mean in assay [2] is reported as 2.19. Also, the EGFR-L858R mean in assay [3] worked out at 1.84.
